Values of other authors as cited in article PMC4569521 (Journal of molecular biology, 2015).

Target: ClpXP (Escherichia coli, UniProt P0A6G7+P0A6H1)
Conditions: MuA monomers; ref [23]

ClpXP, sequence (P0A6H1 whole entry): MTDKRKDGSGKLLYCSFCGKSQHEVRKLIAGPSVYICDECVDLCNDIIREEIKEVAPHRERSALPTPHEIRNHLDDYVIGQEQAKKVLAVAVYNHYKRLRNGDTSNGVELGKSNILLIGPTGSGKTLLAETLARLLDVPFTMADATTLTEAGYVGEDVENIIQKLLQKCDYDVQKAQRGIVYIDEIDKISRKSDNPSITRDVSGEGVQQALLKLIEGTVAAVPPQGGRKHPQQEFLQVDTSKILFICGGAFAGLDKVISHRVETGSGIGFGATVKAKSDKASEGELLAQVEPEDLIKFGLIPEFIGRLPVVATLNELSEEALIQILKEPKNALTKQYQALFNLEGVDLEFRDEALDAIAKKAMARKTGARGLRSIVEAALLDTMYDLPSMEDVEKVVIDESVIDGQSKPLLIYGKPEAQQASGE
ClpXP, sequence (P0A6G7 15-207 partner): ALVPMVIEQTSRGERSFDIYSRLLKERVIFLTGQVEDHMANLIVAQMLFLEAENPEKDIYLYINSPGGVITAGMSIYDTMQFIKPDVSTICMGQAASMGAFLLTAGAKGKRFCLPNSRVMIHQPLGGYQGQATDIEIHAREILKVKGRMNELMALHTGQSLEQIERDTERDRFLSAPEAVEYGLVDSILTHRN

MuA monomers: Phage Mu transposase, ~75kDa, three domains; monomer in solution
appKM for degradation by ClpXP: ~ 10 μM
